Data taken from the supplement of paper PMC12636428.

System: Saccharomyces cerevisiae
Test: transcriptional activation domain activity (GFP:mCherry ratio, weighted mean of sorted bins, harmonized to initial dataset scale) (arbitrary fluorescence ratio units); higher = stronger transcriptional activation
Conditions: beta-estradiol 1 µM; induction time 4 h
Procedure, shortened: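 Values are activation activity, found as the read-weighted mean of bin median fluorescence, averaged across barcodes and then mapped linearly onto the initial dataset scale. Barcoded protein tiles fused to an estradiol-inducible synthetic transcription factor were integrated at the URA3 locus of GFP-reporter yeast diploids. Cells were induced for 4 hours at 30 °C with 1 uM beta-estradiol in SC, sorted into 8 bins by GFP:mCherry ratio, and barcode-sequenced, with tiles under 50 reads discarded.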

“FFRRALNFLFDIALVPMIVCSSYAIFEVPSNVFLKRLRPSLWLSLLMLLWGIM” was tested, and the “transcriptional activation domain activity” value was 69000.
In the case of “FFRRLLLEIGWAHPLLVLCSATLLEPAHSRDHYVSKVFSHLSPEHAHVVGEIA”, the “transcriptional activation domain activity” value is reported as 47500.
“FFSFPSFLLLPPPLSSLPFPSPFLSLLLSLLAFPAAFFPLFSLSSLLNIFPTT” was tested, and the “transcriptional activation domain activity” value was 58500.
For “FFSSFLFFSFLFFSVVLSFLLFFSLLFSSPLFFPFLPFPSLSFPSLPSSPLLF”, the “transcriptional activation domain activity” value was 35200.
With “FFSSLFIYSFFVFSFSLSLSLCLLPSFFLSCFLSFFAIYYYLVGFLLLLLLLF” the “transcriptional activation domain activity” value was 49100.
For “FFTPPSTTYLRFFLSFYPLSPFIFFFIFLSFSLPLSSFLSFSISFFFTFPFPF”, the “transcriptional activation domain activity” value was 36100.
With “FGAIFVELYFIMSSIWFSKIYYMFGFLFLCYGLMILTCATVTILMVYFLLCAE” the “transcriptional activation domain activity” value was 60500.
“FGASLPVFWKVIFHHCQLYFLVIVSTKAILVFTIYALEFPYSVMFIICHLVLV” was tested, and the “transcriptional activation domain activity” value was 37700.
In the case of “FGCLGFYPYLYCTGGMVLSHFAPHQNPELYPSDLSIISSLLISILFFCGWTLT”, the “transcriptional activation domain activity” value is reported as 67900.
With “FGESCAGVLPVTMYDNRLNRHSEHHGKNVYEKMVSGRYLGELVRWILVELLDR” the “transcriptional activation domain activity” value was 54500.
For “FGFFSFSSFFFFLVLLYLFSFFFFLDFLSFSFLFPDIHSRIVINHNLVGNFFF”, the “transcriptional activation domain activity” value was 44600.
For “FGFVFFVASLENGHYKFQFTNFAWTHMALYLIVCQAHFVMNNIFEGMIWFFLP”, the “transcriptional activation domain activity” value was 66100.
In the case of “FGHVINEFVLSTFLTDQCHKIPQDTVNAYFEDCSTISTSQILMLLYILTFNDY”, the “transcriptional activation domain activity” value is reported as 60700.
“FGLFGPLDFLDFLDLWTFWTFWTLNFLDFWTFGLFGLLALDLDFLDFLDFLDL” was tested, and the “transcriptional activation domain activity” value was 57800.
With “FGLLIAGWVCFFFFLSPLFPLFPLFPLFFFFFLLVGSPVSVYLWLGFLVWFGL” the “transcriptional activation domain activity” value was 32800.
In the case of “FGNPPLIWFFWALFSPLFLFFFFFPIFFLSFPFFSFSFLFSFFVLLGVLKAYL”, the “transcriptional activation domain activity” value is reported as 22100.
With “FGRSKAKRRAGRGFGTSGYGAGSSASNGGKDAKGGDTKGAENRYHDNKDEDND” the “transcriptional activation domain activity” value was 38200.
“FGSDYTRFYMYMPHPSILPYILGDLFWTFWRGFIDMEMTSKTYLYLFFLLLPP” was tested, and the “transcriptional activation domain activity” value was 72300.
In the case of “FGSWGRGLCPLVFREAGWLELWGCVCVGGTLVWCLPYGILPMSYWRIWGLLRW”, the “transcriptional activation domain activity” value is reported as 74600.
“FGVGMVPLGCQWACHLVALMVLFDVGWLCISRFILLDSMLLFFTFLTVFCMTK” was tested, and the “transcriptional activation domain activity” value was 57900.
For “FGVKKVHHEIRSHVRLYYQSIGTSLLKGYERMDMVDIFKALRQCFLAIVLLFR”, the “transcriptional activation domain activity” value was 53600.
“FGWHIYKKIGADLAMRGKRSLSPLISSSPRLADRYKMYQIFMMLLKLDFFFFL” was tested, and the “transcriptional activation domain activity” value was 77900.
For “FGYSPSAVWVFLFCFGQGLISFAFLPFFFYLVSICIIILGGLLFCIWVVYIYQ”, the “transcriptional activation domain activity” value was 28400.
With “FHAWVSHIVQLNLFGLLSQTLMLIMFKLDVGTYFFLNDVILCKVYVFSLFVTL” the “transcriptional activation domain activity” value was 65400.
For “FHFHLHSSISFPFPSLSLPFPFFPTSSSSSSPFLLHLFPFPSLFFPLLLLLLF”, the “transcriptional activation domain activity” value was 56400.
For “FHIGIYARVLMCLLLDKKARPLPEDMKLWVDLLRWLKGGSPGGALSFFTYMEL”, the “transcriptional activation domain activity” value was 30900.
In the case of “FHLPCLSLRWWRWCWGHYRLILVVLCLVLLPCLVFLDTIYVYKAFFQIKLENT”, the “transcriptional activation domain activity” value is reported as 34500.
In the case of “FHPIPFLFSSSPLFLIPIFSFHIFHFLLLPFFPSLLLSSFSIPFIPLLSIHSS”, the “transcriptional activation domain activity” value is reported as 57600.
For “FHRGGSNGSNSNNNNNAGDLQHHQHAGINKTTANVSEKYHWNRIKGTVTDVIE”, the “transcriptional activation domain activity” value was 28300.
For “FHSLLSPFHASFLSLFYPHSLSCFYLFPFLHAFVFLFHFRCGFLGVSCILLSA”, the “transcriptional activation domain activity” value was 73200.
In the case of “FHYGGRADVTSVFTVEARTSLTVDDFRKRILLAWANLRLHHVLLMSTVLRDSA”, the “transcriptional activation domain activity” value is reported as 65000.
“FICLLLSTTLRRLRWCLIRYIRNNYMEVCVCLVTIGVVAFSRLSWTLWVGAYV” was tested, and the “transcriptional activation domain activity” value was 50000.
In the case of “FIDAAGKGGELRWNPHNKRYHLVGAEEGGKEDALSAPNKPTKPNPVLVCIYGQ”, the “transcriptional activation domain activity” value is reported as 69000.
In the case of “FIHLMNMTQVVVLCIHRFVYGLVPLFEITTCAFWPLLVSLWHLTYLLFYAIMF”, the “transcriptional activation domain activity” value is reported as 64100.
With “FILGLIFVFAFVWHERSMAACPLIPIKAMTAQATFVLVCTATGWASFSIWIYY” the “transcriptional activation domain activity” value was 60700.
For “FILGYYWGDARLFGLSVRFMSLFSWFRVVHRVLPRLLPMRFKGPGKYVVTYDA”, the “transcriptional activation domain activity” value was 58500.
For “FILSGCTFRLLFCIFGIRVWLDHQLCGNLLVVELYRKIVRSIDAYHHGKGYPT”, the “transcriptional activation domain activity” value was 61700.
“FILYSLLLIPFPLNYILSYIFFFFFLILWGIYLAMRGFFKSWFSLWAWAGNGI” was tested, and the “transcriptional activation domain activity” value was 64600.
In the case of “FIPLQAGIKQLIGRLSLPRHPLSNLNHLIPRHIVFTDCIWLILRQLSTLKHWA”, the “transcriptional activation domain activity” value is reported as 57800.
“FIQLVHLWRLILNYGPTGPFNIRMPSHLTWVVIKQHIQQYFFRCLCLLNKDGA” was tested, and the “transcriptional activation domain activity” value was 49100.
“FIRSQLGSVMPTIALSLMKDVLFRLEQLFLNRECHEWPVALAVLIIVLMTIES” was tested, and the “transcriptional activation domain activity” value was 52800.
For “FISKLCILGGSQICNHFWGGIEIILESFYFILTTLINFWDFINLPNAFLWGLF”, the “transcriptional activation domain activity” value was 72800.
“FISVYVPNFFVAFCLEMSQFFYLYQFMVMWLYYYWNYYVIGVIDTAIILVSAI” was tested, and the “transcriptional activation domain activity” value was 47100.
For “FITSLMLFQAVPCFLVHVIMLFPFFRNFPHQFRYRDPFTMVLLSFSFIFLFTF”, the “transcriptional activation domain activity” value was 62700.
For “FIVHTAELHLFRKQYVGQLYRSQKLLGLLARRPHIARLVTRFGMHAMSAPLFY”, the “transcriptional activation domain activity” value was 57100.
For “FIVLYLSHRQLIIVNPCYLLGHHACSLLCLLILHNFHIWLSYVGTVLFCFCFS”, the “transcriptional activation domain activity” value was 78400.
For “FIVVLLTMEVIIHYLYMVAIFHVKPDWSQFTAAQLSMMGFLNLKHIWLKLLIP”, the “transcriptional activation domain activity” value was 39000.
For “FKCCAVAFPIVCFATPYTALIQRPLVQQAAMFGIMIVKCFAVIFAFPCSIILL”, the “transcriptional activation domain activity” value was 81600.
For “FKDLLVEGFDNNRLIVAIPFVCKVLEQASKSRVFKPPNPWLMAILRLLVELYH”, the “transcriptional activation domain activity” value was 51200.
In the case of “FKDNPKVIETKDKVMHYNTQLRYHGLRDHQVNIRNTRRHAIALLIWRVVQMVF”, the “transcriptional activation domain activity” value is reported as 39500.
With “FKEGVSLTVLDELYRWQKYAYGCDEIIFNPIFTWWKKGPISLQLRNFVWSIAP” the “transcriptional activation domain activity” value was 57100.
“FKLNTVTNLNEIDFTNIFTKSPHPHSGSTHPRQVFDQLDDCSSILFSPLTTNT” was tested, and the “transcriptional activation domain activity” value was 67700.
“FKSMIFFLWFLDTLQLAFVIHALYYYLITSYGNIVALMKPTWSILLQIYVTSL” was tested, and the “transcriptional activation domain activity” value was 69400.
In the case of “FKSQLFCFYNLRLFVSCQPKHLNDLVDLLKKYHGSHVYQFVFTLSAFLERVAQ”, the “transcriptional activation domain activity” value is reported as 48800.
“FKVGIDGCLRLRGAGSTLCFHRVVRILTATIGTMVRVLFVCKELWRVTGEETS” was tested, and the “transcriptional activation domain activity” value was 51700.
For “FKVLMQVMPFVLHGLVDDKLRTLWRMLGELGAFLWMPLIKDKEVYLRKLAVII”, the “transcriptional activation domain activity” value was 48700.
In the case of “FLAAVTCLLCVIGIFICLLFHANPYLRLIPLLIMIQSICFVLFSHFGLCLYRL”, the “transcriptional activation domain activity” value is reported as 39400.
With “FLARLESLHRALGLYLWFSYRYPNIIISQALAFHAKSMLEAKIDDLLQKMSFD” the “transcriptional activation domain activity” value was 44300.
For “FLAYVAKRIVWAIIRTIVYLRRDYLGYLSLGRGRSPSNVRGWLANKWYQFLLL”, the “transcriptional activation domain activity” value was 50100.
For “FLCIFFLSLFFYTFSISYLYVWCLPPPPRRQTCLPTLTFISLPFVSALFLSFG”, the “transcriptional activation domain activity” value was 59100.
With “FLCIFSPFSRMISCLVYRSLFCSSYITSINLIVSVSKVVRRFIIRIFPLLFTI” the “transcriptional activation domain activity” value was 51400.
For “FLDCLKYILHNSHHLLVTVCDSFERTVRGLNKLKKMNVRQKDIYIGYYLLQYG”, the “transcriptional activation domain activity” value was 46200.
For “FLDFLDLWTFGLFGPLDFLDFLDFLDFLDFLDFLDFLDLWTFGLFGPLDFLDF”, the “transcriptional activation domain activity” value was 46900.
“FLDLVLPHVGRWSDFVAYIPGVTVVEVNYLLRRLGSPKCGPALLLEKLHLFFF” was tested, and the “transcriptional activation domain activity” value was 54400.
With “FLDRGRVGFFFFFLLVSFYSSSWKLLFLLYTHFFVFSGLLALYYFLFWSVLFI” the “transcriptional activation domain activity” value was 68800.
For “FLDVSTSYDIGNPPSISDDLLDLSIFTAQNFQSPSIDFRRVKLMHDFLDVSRF”, the “transcriptional activation domain activity” value was 125000.
With “FLFFFFLLLFLLYSSLPLPPFLYPSLPLCRFSLFYYYLLLWFHFPCFSPFFLF” the “transcriptional activation domain activity” value was 57900.
In the case of “FLGTAMYFLYGESVIYYFKHILLVDRILLPLATHHRFISFMLYIIGFVFFVFS”, the “transcriptional activation domain activity” value is reported as 51000.
For “FLHCEPPTLLRLLGFFLCLVFSLYFTLSFPFFGPMLLLIRFSLGLPLPLVLMG”, the “transcriptional activation domain activity” value was 58300.
“FLHLATLKEKMGNRFRAKQSDISPEINLVLLGVLTLTVRFNPTLVSYVTTLRT” was tested, and the “transcriptional activation domain activity” value was 50600.
In the case of “FLHLLKIIRPSFAFYFTILFWWCIQVQLLLQIIINRIRVIVPNRKLSRHIMWG”, the “transcriptional activation domain activity” value is reported as 66300.
With “FLHLLKYIRPSFAFYFTILFWWCIQVQLLLQIIINRIRVIVPDRRHSRHIMIA” the “transcriptional activation domain activity” value was 68800.
For “FLKIYLLNPLHMTRFTDLLHQGFILNRVFQPYESHLQYLLQWMCDYNLYGCAY”, the “transcriptional activation domain activity” value was 39200.
With “FLLAIRVSNMDLLMIGIMLTLFVRNVIVSTDYIRRGRVRYKALFYVLLCKYYR” the “transcriptional activation domain activity” value was 49600.
In the case of “FLLCTFFAIFAFLLCYLLAFFSFHVFLYDDSLFLFYYCMSAACTFFCCMFLEF”, the “transcriptional activation domain activity” value is reported as 39600.
“FLLDIFLLLVPSFPFSYTPFLVTSLFLVLCDIDVFLRFIYVHIYLVTLICTFM” was tested, and the “transcriptional activation domain activity” value was 30400.
In the case of “FLLFLSFGGLGGGIYSLCFGHIFSSLFLLFVLFSTSFPYMGPQLHVVMMPTCT”, the “transcriptional activation domain activity” value is reported as 40500.
“FLLGVFVCLVNLREWWMVDRGPRIMMGEFGKVLSVRMRFALTLHFREQVHVNH” was tested, and the “transcriptional activation domain activity” value was 48800.
For “FLLLFFFFVYFHLSFSFLTFLLSPLFVFIFMFYFGSFIFLPLSLFLFSLLFFS”, the “transcriptional activation domain activity” value was 66100.
“FLLLMFQGLDIFTPVIRVLHFRICLLLLLLIILLAVPLLFSYIIFSRPFLSLV” was tested, and the “transcriptional activation domain activity” value was 43900.
In the case of “FLLSILFLLSFFYSFFSFSLFIFDRLCQFSHFVDLPSLHYLSLCVFLSILCLF”, the “transcriptional activation domain activity” value is reported as 37100.
With “FLLSTSFYFVFILFLFHFYIVLFLLPPPSLSFPLSLPYLSAFIVLTPTQLWPA” the “transcriptional activation domain activity” value was 77600.
With “FLLTLLCMEVVLHFDYCVAISKANPDWSKYTPIQLSLLSYFNLHILWLKLLIP” the “transcriptional activation domain activity” value was 63400.
